The values below come from PMC5755580.

The target of experiment [1] is VvPrx3 (C73S) (Vibrio vulnificus). The experiment in a line: SDS-PAGE under nonreducing or reducing conditions (intermolecular disulfide bond); reduced VvPrx3 (C73S) reacted with various concentrations of H2O2 or t-BOOH for 30 min at 298 K in 20 mM Tris-HCl pH 8.0, 150 mM NaCl; stopped with iodoacetamide; boiled with or without 10 mM DTT.
Experiment [2] has the same target. The experiment in a line: SDS-PAGE under nonreducing conditions (intermolecular disulfide bond), time course; VvPrx3 (C73S) 70 µM reacted with 50 µM H2O2 for 0-60 s; quenched with 10 mM N-ethylmaleimide; band density by ImageJ.

By stoichiometry N is commonly meant a count of units in the complex or per binding partner. VvPrx3 (C73S) (enzyme) yielded a stoichiometry N in experiment [1] of 2. The substance further had a protein linked by a disulfide bond at 30 s (70 µM protein, 50 µM H2O2) in experiment [2] of 30 µM.
